Results: PMC5376495 (ACS combinatorial science, 2017)
Where no end group is shown, it is not given here. [ ]: non-standard residue; d: D form. Lys(Me3) = C[N+](C)(C)CCCC[C@H](N)C(=O)O

B1: UNC5115 (peptide)
chain: XKF
modifications: N-terminal (2S,3aS,7aS)-octahydro-1H-indole cap; methyl-isopropyl lysine (Kme,iPr); C-terminal piperidinyl ring in place of leucine

Target: His-tagged EED (His6X-EED), full length (UniProt O75530 1-441)
Test: ITC

His-tagged EED (His6X-EED), full length, sequence (O75530 whole entry): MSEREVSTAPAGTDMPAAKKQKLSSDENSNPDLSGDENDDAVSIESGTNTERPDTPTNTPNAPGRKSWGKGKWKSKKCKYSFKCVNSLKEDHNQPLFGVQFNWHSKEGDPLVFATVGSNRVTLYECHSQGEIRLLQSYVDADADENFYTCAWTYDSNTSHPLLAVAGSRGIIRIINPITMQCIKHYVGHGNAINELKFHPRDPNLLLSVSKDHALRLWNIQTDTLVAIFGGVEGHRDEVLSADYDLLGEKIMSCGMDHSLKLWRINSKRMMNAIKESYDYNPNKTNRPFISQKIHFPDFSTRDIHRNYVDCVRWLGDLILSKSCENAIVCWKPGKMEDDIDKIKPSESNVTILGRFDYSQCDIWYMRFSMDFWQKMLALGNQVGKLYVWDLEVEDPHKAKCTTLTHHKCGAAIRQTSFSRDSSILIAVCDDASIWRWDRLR

Binder | Kd
QR[Lys(Me3)]FA (peptide, UniProt Q92833 114-118, looked up) [Jarid2_(114–118)K116me3] | 8.82 ± 2.06 µM
B1 | 1.14 ± 0.14 µM
